Experimental data as given in patent US20170247475A1 (Boehringer Ingelheim, published 2017).

Legend:
[1] = target: T1, recombinant human VEGF165 (human, UniProt P15692-4 27-191); experiment: ELISA screen, periplasmic extract on coated hVEGF165
T1 construct: also called hVEGF165; rhVEGF165
Excerpt: Wells are blocked with a casein solution (1%). After addition of typically a 10-fold dilution of the periplasmic extracts, VHH binding is detected using a mouse anti-myc (Roche) and an anti-mouse-HRP conjugate (DAKO). Clones showing ELISA signals of >3-fold above background are considered as VEGF binding VHHs.

[2] = target: T1, recombinant human VEGF165; experiment: Biacore, periplasmic extract on hVEGF165 chip
Method: (§1) Dissociation rates of inhibitory VHHs are analyzed on Biacore (Biacore T100 instrument, GE Healthcare). HBS-EP+ buffer is used as running buffer and experiments are performed at 25° C. […] After immobilization, surfaces are deactivated with 10 min injection of 1M ethanolamine pH8.5. A reference surface is activated and deactivated with respectively EDC/NHS and ethanolamine. Periplasmic extracts of VHHs are injected at a 10-fold dilution in running buffer for 2 min at 45 μl/min and allowed to dissociate for 10 or 15 min. Between different samples, the surfaces are regenerated with regeneration buffer. Data are double referenced by subtraction of the curves on the reference channel and of a blank running buffer injection. […] is evaluated by fitting a two phase decay model in the Biacore T100 Evaluation software v2.0.1.

[3] = target: T1, recombinant human VEGF165; experiment: Biacore, periplasmic extract on hVEGF165 chip, two phase decay fit
Method: as §1

T1 sequence (P15692 other isoform, or with tags, fused parts or gaps limits assumed): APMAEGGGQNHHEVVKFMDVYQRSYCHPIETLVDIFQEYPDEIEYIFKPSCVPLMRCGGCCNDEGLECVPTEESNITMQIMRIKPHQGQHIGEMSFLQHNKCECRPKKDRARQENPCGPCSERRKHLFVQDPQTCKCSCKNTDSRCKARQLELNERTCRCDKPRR

Row | Binder | binding result [1] | Binding level (RU) [2] [RU] | % fast [3] [%]
1 | VEGFBII89H08 (VHH) VHH: EVQLVESGGGLVQAGGSLRLSCAASGGSFSSYAPGWFRQAPGKEREFVAAFTRSSNIPYYKDSVKGRFTISRDNAHTVYLQMNSLKPEDTAIYYCAVNLGSTWSRDQRTYDYWGQGTQVTVSS | binds |  | 
2 | VEGFBII23A03 (VHH, periplasmic extract) VHH: EVQLVESGGGLVQPGDSLKLSCVASGRTFSSYSMGWFRQAQGKEREFVVAISSGGYIYDSVSLQGRFTISRDNTKNTVYLQTPSLKPEDTAVYYCAASRAYGSSRLRLADTYDYWGQGTQVTVSS |  | 487 | 15
3 | VEGFBII30C09 (VHH, periplasmic extract; also called VEGFBII30009) VHH: EVQLVESGGGLVQPGDSLKLSCIASGRTSSSYSMGWFRQAQGQEREFVVAISSGGYIYDSVSLQGRFTISRDNTKNTVYLQTPSLKPEDTAVYYCAASRAYGSSRLRLADTYDYWGQGTQVTVSS |  | 264 | 19
4 | VEGFBII23A08 (VHH, periplasmic extract) VHH: EVQLVESGGGLVQTGDSLRLSCVASGRTFSSYSMGWFRQAQGKEREFVVAISNGGYKYDSVSLEGRFTISRDNTKNTVYLQINSLKPEDTAVYYCAASRAYGSSRLRLADTYDYWGQGTQVTVSS |  | 502 | 19
5 | VEGFBII40F02 (VHH, periplasmic extract) VHH: EVQLVESGGGLVQPGDSLKLSCAFSGRTFSSYSMAWFRQAQGKEREFVVAISSGGFIYDAVSLEGRFTISRDNTKNTVYLQTPSLKPEGTAVYYCAASRAYGSSRLRLADTYDYWGQGTQVTVSS |  | 258 | 20
6 | VEGFBII23E05 (VHH, periplasmic extract) VHH: EVQLVESEGGLVQPGDSLKLSCVASGRTSSSYSMGWFRQAQGKEREFVVAISSGGYIYDSVSLQGRFTISRDNTKNTVYLQTPSLKPEDTAVYYCAASRAYGSSRLRLADTYDYWGQGTQVTVSS |  | 275 | 18
7 | VEGFBII27D08 (VHH, periplasmic extract) VHH: EVQLVESGGGLVQTGDSLRLSCAASGRTFSSYSMGWFRQAQGKEREFVVAISSGGYKYDSVSLEGRFTISRDNTQNTVYLQINSLKPEDTAVYYCAASRAYGSGRLRLADTYDYWGQGTQVTVSS |  | 225 | 13
8 | VEGFBII23D11 (VHH, periplasmic extract) VHH: EVQLVESGGGLVQPGDSLRLSCAFSGRTFSSYSMAWFRQAQGKEREFVVAISSGGFIYDAVSLEGRFTISRDNTKNTVYLQTPSLKPEDTAVYYCAASRAYGSSRLRLADTYDYWGQGTQVTVSS |  | 510 | 13
9 | VEGFBII27G07 (VHH, periplasmic extract) VHH: EVQLVESGGGLVQPGDSLKLSCVASGRTSSSYSMGWFRQAQGQEREFVVAISSGGYIYDSVSLQGRFTISRDNTKNTVYLQTPSLKPEDTAVYYCAASRAYGSSRLRLADTYDYWGQGTQVTVSS |  | 471 | 18
10 | VEGFBII41B05 (VHH, periplasmic extract) VHH: EVQLVESGGGLVQPGGSLRLSCAFSGRTFSSYSMGWFRQAQGKEREFVVAISSGGFIYDAVSLEGRFTISRDNTKNTVYLQTPSLKPEDTAVYYCAASRAYGSSRLRLADTYDYWGQGTQVTVSS |  | 324 | 16
11 | VEGFBII22A11 (VHH, periplasmic extract) VHH: EVQLVESGGGLVQPGDSLKLSCAFSGRTFSSYSMAWFRQAQGKEREFVVAISSGGFIYDAVSLEGRFTISRDNTKNTVYLQTPSLKPEDTAVYYCAASRAYGSSRLRLADTYDYWGQGTQVTVSS |  | 461 | 12
12 | VEGFBII22E04 (VHH, periplasmic extract) VHH: EVQLVESGGGLVQPGDSLKLSCVASGRTSSSYSMGWFRQAQGKEREFVVAISSGGSIYDSVSLQGRFTISRDNTKNTVYLQTPSLKPEDTAVYYCAASRAYASSRLRLADTYDYWGQGTQVTVSS |  | 520 | 14
13 | VEGFBII89F09 (VHH) VHH: EVQLVESGGGLVQAGDSLRLSCAASGRTFNNAIMGWFRQAPGQEREFVAAMNWRGGPTYYADSVKGRFTISGDNTKNTVFLQMNFLKPEDTAVYYCAADEDLYHYSSYHYSRVDLYHYWGQGTQVTVSS | binds |  | 
14 | VEGFBII01C02 (VHH) VHH: EVQLVESGGGLVQAGGSLRLSCTASGGSFSSYGMGWFRQSPGKEREFVSAISEYSNTYCSDSVRGRFTISRDNTKNTVYLQMNSLTPDDTAIYYCAASPTILLTTEQWYKYWGQGTQVTVSS | binds |  | 
15 | VEGFBII89B08 (VHH) VHH: EVQLVESGGGLVQPGGSLRLSCAASGTTSSIFAMRWYRQAPGKQRELVASITRSSITTYADSVKGRFTPSRDNAKNTVSLQMNSLKPEDTAVYYCNAAIRPELYSVVNDYWGQGTQVTVSS | binds |  | 
16 | VEGFBII89G09 (VHH) VHH: EVQLVESGGGLVQPGGSLRLSCAASGTTSSIFAMRWYRQAPGKQRELVASITRSSITTYADSVKGRFTLSRDNAKNTVSLQMNSLKPEDTAVYYCNAAIRPELYSVVNDYWGQGTQVTVSS | binds |  | 
17 | VEGFBII88H01 (VHH) VHH: EVQLVESGGGLVQAGGSLRLSCVASGFTLGTYAIGWFRQAPGKEREAVSCMSAGDSIPWYTASVKGRFTTSTDNARNTVYLQMNSLKPEDTAHYYCAAARYHGDYCYYEGYYPFWGQGTQVTVSS | binds |  | 
18 | VEGFBII88G05 (VHH) VHH: EVQLVESGGGLVQPGASLRLSCAASGDGFTLYNMGWFRQAPGKEREFVAAITSSPMSTYYADSVKGRFSISINNDKTTGFLQMNVLKPEDTGVYFCAAPEGSFRRQYADRAMYDYWGQGTQVTVSS | binds |  | 
19 | VEGFBII88G03 (VHH) VHH: EVQLVESGGGLVQAGGSLRLSCAASGGTFSSLAVGWFRQAPGKEREFVARITWSGATTYYADAVKDRFTISRDNAKNTMYLQMNSLKPEDTAVYYCAADRSPNIINVVTAYEYDYWGQGTQVTVSS | binds |  | 
20 | VEGFBII89D04 (VHH) VHH: EVQLVESGGGLVQPGGSLRLSCATSGLTFSDYNLGWFRQAPGKERQFVAVISWRDSFAYYAEPVKGRFTISRDNAKNTVYLQMNSLKPEDTAVYYCAADRVSSRLVLPNTSPDFGSWGQGTQVTVSS | binds |  | 
21 | VEGFBII89B04 (VHH) VHH: EVQLVESGGGLVQAGGSLRLSCAASTSISSTNFMGWYRQAPGKQRELVATITSSSITNYVDSVKGRFTISRDNAKNTVYLQMTSLKPEDTAVYYCHARWRWSDVEYWGKGTLVTVSS | binds |  | 
22 | VEGFBII01E07 (VHH) VHH: EVQLVESGGGLVQAGDSLRLSCVATGRTFRASDMGWFRQAPGKEREFVAAINWSGLSTFYTDSVKGRFTISRDNDNGALYLQMNTLKPEDTAVYSCAAGRIPSSSRFSSPAAYASWGQGTQVTVSS | binds |  | 
23 | VEGFBII88G11 (VHH) VHH: EVQLVESGGGLAQAGGSLRLSCAASGRTFSGSDMGWFRQSPGKEREIVAAIRLSGSITYYPDSVKGRFTISRDNAKNTVYLQMNSLKPEDTAVYYCAARSTYSYYLALADRGGYDYWGQGTQVTVSS | binds |  | 
